Biological target: S. cerevisiae Arf1 (residues 18–181) with a C-terminal GST tag (S. cerevisiae) (UniProt P11076)
Test: pull-down

Chain of S. cerevisiae Arf1 (residues 18–181) with a C-terminal GST tag (S. cerevisiae) (P11076 18-181): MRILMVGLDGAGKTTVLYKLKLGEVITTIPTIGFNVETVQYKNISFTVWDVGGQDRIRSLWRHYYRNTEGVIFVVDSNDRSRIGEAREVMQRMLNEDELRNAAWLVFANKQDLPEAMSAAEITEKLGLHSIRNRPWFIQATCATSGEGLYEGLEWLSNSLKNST

percent of the binding capacity of wild-type protein: 90%
Substance: γζ-COP dimer with full-length γ-COP L128E (from UniProt P53620 1-874; P35604 1-177) (complex)

— article PMC3285272
